In IntAct's records for PubMed 24525233:

B1: Transcription cofactor vestigial-like protein 4 (Homo sapiens), Q14135 (parent)
chain: METPLDVLSRAASLVHADDEKREAALRGEPRIQTLPVASALSSHRTGPPPISPSKRKFSMEPGDEDLDCDNDHVSKMSRIFNPHLNKTANGDCRRDPRERSRSPIERAVAPTMSLHGSHLYTSLPSLGLEQPLALTKNSLDASRPAGLSPTLTPGERQQNRPSVITCASAGARNCNLSHCPIAHSGCAAPGPASYRRPPSAATTCDPVVEEHFRRSLGKNYKEPEPAPNSVSITGSVDDHFAKALGDTWLQIKAAKDGASSSPESASRRGQPASPSAHMVSHSHSPSVVS

Variants of: B1
Details: with tead4_human TEAD4, Q15561
Sequence of tead4_human TEAD4, Q15561 (Q15561 whole entry): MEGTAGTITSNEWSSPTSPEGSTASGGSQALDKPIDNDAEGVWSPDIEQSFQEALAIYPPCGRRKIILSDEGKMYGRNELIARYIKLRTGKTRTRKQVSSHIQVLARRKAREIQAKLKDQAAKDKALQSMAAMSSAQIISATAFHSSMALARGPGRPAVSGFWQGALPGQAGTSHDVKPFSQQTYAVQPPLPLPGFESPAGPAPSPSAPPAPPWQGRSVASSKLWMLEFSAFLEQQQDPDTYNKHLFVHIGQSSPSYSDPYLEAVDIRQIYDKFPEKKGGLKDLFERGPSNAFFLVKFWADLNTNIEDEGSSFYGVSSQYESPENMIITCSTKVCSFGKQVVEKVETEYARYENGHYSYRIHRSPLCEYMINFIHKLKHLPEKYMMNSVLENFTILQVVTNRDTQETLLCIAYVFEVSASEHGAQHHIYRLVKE

Row | Variant | effect of a mutation on the interaction
1 | W249A | decreasing interaction

Variants of: B1
Details: with tead4_human TEAD4, Q15561
Remark: another data set of the same source

Row | Variant | effect of a mutation on the interaction
2 | H240A | decreasing interaction
3 | H212A;F213A;H240A;F241A | disrupting interaction
4 | H240A;F241A | decreasing interaction
5 | L245A | decreasing interaction
